Experimental data reported in article PMC11677236, “TIPE drives a cancer stem-like phenotype by promoting glycolysis via PKM2/HIF-1α axis in melanoma” (eLife, 2024).

Target: T1, GST-tagged PKM2 (UniProt P14618 1-531)
T1 construct: Pyruvate kinase isoform M2 (PKM2); also called GST-PKM2; source: purified
Assay: pull-down; GST-pull down in vitro using purified GST-tagged PKM2 and TIPE-HA
Details: both partners purified

T1 sequence (P14618 whole entry, canonical isoform): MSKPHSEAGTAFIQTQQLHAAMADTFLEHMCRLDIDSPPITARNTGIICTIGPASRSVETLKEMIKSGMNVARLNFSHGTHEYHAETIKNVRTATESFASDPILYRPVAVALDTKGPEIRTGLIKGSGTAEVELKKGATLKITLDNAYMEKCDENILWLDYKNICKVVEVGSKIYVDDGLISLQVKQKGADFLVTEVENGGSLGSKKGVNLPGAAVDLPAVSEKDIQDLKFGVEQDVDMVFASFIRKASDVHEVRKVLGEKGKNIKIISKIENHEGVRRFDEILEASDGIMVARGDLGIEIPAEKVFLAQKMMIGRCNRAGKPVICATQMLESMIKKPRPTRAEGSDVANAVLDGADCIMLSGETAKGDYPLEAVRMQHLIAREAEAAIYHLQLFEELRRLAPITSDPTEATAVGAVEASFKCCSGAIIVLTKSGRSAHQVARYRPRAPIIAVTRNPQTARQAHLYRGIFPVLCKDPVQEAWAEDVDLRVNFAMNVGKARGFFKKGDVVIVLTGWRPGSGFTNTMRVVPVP

B1: TIPE-HA used in the GST-pull down assay (natural protein, UniProt O95379 1-198, looked up)
chain: MHSEAEESKEVATDVFNSKNLAVQAQKKILGKMVSKSIATTLIDDTSSEVLDELYRVTREYTQNKKEAEKIIKNLIKTVIKLAILYRNNQFNQDELALMEKFKKKVHQLAMTVVSFHQVDYTFDRNVLSRLLNECREMLHQIIQRHLTAKSHGRVNNVFDHFSDCEFLAALYNPFGNFKPHLQKLCDGINKMLDEENI
notes: TIPE (TNFAIP8); The legend says 'using purified GST-tagged PKM2 and TIPE-HA'; It may be the same construct as m3
B1: binds.
